In assay [1] the target is synthetic HPV16 virus-like particles (L1 and L2) purified from CV-1 cells infected with pLC201VV (human papillomavirus type 16) (UniProt P03101). In words: ELISA, native VLPs coated in PBS pH 7.5. For orientation: An ELISA detects its analyte on a solid surface through an enzyme-linked reagent.
For assay [2] the target is unchanged. Nature of the assay: ELISA, denatured particles coated in carbonate buffer pH 9.6.

Chain of UniProt P03101 (P03101 whole entry, chain 1 of 2): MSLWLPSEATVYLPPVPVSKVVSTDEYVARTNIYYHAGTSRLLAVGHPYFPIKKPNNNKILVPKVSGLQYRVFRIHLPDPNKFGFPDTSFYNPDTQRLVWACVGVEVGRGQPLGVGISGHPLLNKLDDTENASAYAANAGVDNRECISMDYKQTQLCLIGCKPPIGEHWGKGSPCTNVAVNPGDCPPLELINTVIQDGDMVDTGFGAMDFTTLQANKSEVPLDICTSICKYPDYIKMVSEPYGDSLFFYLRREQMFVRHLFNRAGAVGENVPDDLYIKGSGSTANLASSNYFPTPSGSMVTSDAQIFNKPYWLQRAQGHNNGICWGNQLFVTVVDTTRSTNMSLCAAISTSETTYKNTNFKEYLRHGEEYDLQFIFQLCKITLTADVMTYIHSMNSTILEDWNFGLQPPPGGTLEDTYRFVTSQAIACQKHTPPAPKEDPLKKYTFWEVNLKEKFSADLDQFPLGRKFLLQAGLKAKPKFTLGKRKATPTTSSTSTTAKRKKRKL
Chain of UniProt P03101 (P03107 whole entry, chain 2 of 2, further chain): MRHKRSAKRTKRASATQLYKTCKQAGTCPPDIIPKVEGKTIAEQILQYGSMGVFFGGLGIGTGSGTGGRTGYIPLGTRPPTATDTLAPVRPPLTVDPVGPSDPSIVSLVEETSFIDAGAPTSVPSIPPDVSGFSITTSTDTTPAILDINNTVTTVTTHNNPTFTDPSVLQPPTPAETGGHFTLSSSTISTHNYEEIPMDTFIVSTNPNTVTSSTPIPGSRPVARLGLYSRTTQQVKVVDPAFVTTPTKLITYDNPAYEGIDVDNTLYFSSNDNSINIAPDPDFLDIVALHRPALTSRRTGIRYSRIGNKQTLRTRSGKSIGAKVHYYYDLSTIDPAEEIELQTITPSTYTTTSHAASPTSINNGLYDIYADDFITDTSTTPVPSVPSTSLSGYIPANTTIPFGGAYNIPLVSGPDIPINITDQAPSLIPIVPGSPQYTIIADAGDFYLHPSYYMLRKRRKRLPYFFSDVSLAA

Turning to “anti-HPV16 L1 monoclonal antibody Camvir 1”, the values for the OD in assay [1] and in assay [2] were 0.064 OD and 0.107 OD, respectively.

For the origin of these results see patent US20040214331A1.
